The values below come from US6355785 (Aronex Pharmaceuticals, Inc.).

As usually defined, the IC50 is the point on the concentration scale where inhibition reaches its midpoint. Higher therefore signals lower potency. What is called Ki is a measure of affinity in units of concentration, obtained from inhibition or displacement.

Series [1] deals with T1, HIV-1 integrase wild-type (IN1-288) (Human immunodeficiency virus 1, UniProt P12497 P12497:1148-1435). Briefly: inhibition; both activities 0.120. The conditions noted are these: intermolecular G4.
Series [2] addresses T1, HIV-1 integrase wild-type (IN1-288). Kind of series: inhibition; 3'-process column; strand transfer column 0.060 (headings appear swapped). The conditions noted are these: intermolecular G4.
The target of series [3] is T2, HIV-1 integrase wild-type (IN1-288) (Human immunodeficiency virus 1, UniProt P12497 P12497:1148-1435). Kind of series: inhibition.
For series [4], the target named is T3, HIV-1 reverse transcriptase (Human immunodeficiency virus 1, UniProt P03366;P03366 P03366:600-1159,P03366:600-1039). Kind of series: inhibition.
For series [5], the target named is T3, HIV-1 reverse transcriptase. Kind of series: inhibition; printed as ID50.
Series [6] concerns the target T2, HIV-1 integrase wild-type (IN1-288). Briefly: inhibition; 3'-process column; strand transfer column 0.150.
For series [7] the target is unchanged. Briefly: inhibition; both activities 0.120; row misprinted T30745.
Series [8] has the same target. Kind of series: inhibition; 3'-process column; strand transfer column 0.055; row misprinted T30745.
Series [9] shares this target. Kind of series: inhibition; both activities 0.125.
For series [10], the target named is T4, HIV-1 integrase IN1-212 (C-terminal deletion) (HIV-1, UniProt P04585 P04585:1148-1359).
T4 chain: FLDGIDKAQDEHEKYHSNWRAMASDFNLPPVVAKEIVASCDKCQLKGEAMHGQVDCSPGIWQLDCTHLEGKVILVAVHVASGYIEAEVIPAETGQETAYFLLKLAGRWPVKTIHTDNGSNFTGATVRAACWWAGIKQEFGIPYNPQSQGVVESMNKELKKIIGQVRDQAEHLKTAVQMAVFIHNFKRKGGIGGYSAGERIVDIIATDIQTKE
Briefly: inhibition; disintegration assay, Mn2+, 30 C. The conditions noted are these: intramolecular G4.

For TGGGAGGTGGGTCTG (structured_DNA, all phosphodiester, DMT at 3' end) [T30747B], the IC50 in series [1] turned out to be 120 nM. In other words, the sub-micromolar range. Consider GCGGGGCTCCATGGGGGTCG (structured_DNA, PS pattern g*c*gggc*t*c*c*a*tggggg*t*c*g (as printed in table footnote)) [S935833], for which 45 nM corresponded to half-maximal inhibition in series [2] (IC50). This lies in the double-digit nanomolar range.

GTGGTGGGTGGGTGGGT (structured_DNA, pPT; N13 = C-5 propynyl dU [n positions 13 = modified dU]) [T30701] yielded an IC50 in series [3] of 30 nM. As for GTGGTTGGTGTGGTTGG (structured_DNA, pPT (PS at first and last linkages)) [T30673], the IC50 in [3] came to 600 nM.

In series [3], GTGGTGGGTGGGTGGGT (structured_DNA, pPT; capital T = C-5 propynyl dU (position 5)) [T30700] returned a 50% inhibitory concentration (IC50) of 40 nM. GTGGTGGGCGGGTGGGT (structured_DNA, pPT) [T30744] gave an IC50 in series [3] of 60 nM. This IC50 lies about 1.5-fold higher than the previous one. The same measure, in the same setting: then GTGGTGGGGTGGTGGGT (structured_DNA, pPT (PS at first and last linkages)) [T30697], with 13 nM. GTTGGGGGTTGTTGGTGGGGTGGTGG (ssDNA, phosphodiester, 3'-propanolamine) [I100-00] registered an inhibitory constant (Ki) in series [4] of 370 nM. Besides, in series [5], the IC50 amounted to 5000 nM. Take GTGGTGGGTGGGGTGGT (structured_DNA, pPT (PS at first and last linkages)) [T30698]: the IC50 in [3] stood at 16 nM. On to GGGTGGGTGGGTGGGTGG (ssDNA, PS all linkages, 3'-amine) [1174], for which, in series [4], the Ki was 15 nM. The same molecule gave an IC50 in series [5] of 15.4 nM. As to GTGGTGGGTGGGTGGGTGGTGGGTGGTGGTTGTGGGTGGGTGGTG (ssDNA, PS all linkages, 3'-amine) [I100-21], the Ki in series [4] amounted to 1 nM. For the same molecule, it took 4 nM to reach half-maximal inhibition in series [5] (IC50). GTGGTGGGTGGGTGGGTGGTGGGTGGTGGTTGTGGGTGGGTGGTG (ssDNA, phosphodiester, 3'-amine) [I100-07] returned a Ki in series [4] of 137 nM. Also, the IC50 in series [5] amounted to 2500 nM. GTGGCGGGCGGGCGGGT (structured_DNA, pPT) [T30746] came in with an IC50 in [6] of 150 nM. In [3], GTGGTGGGTGGGTGGGT (structured_DNA, pPT; N13 = 5-iodo dU [n positions 13 = modified dU]) [T30578] showed an IC50 of 50 nM. This lies in the double-digit nanomolar range. In turn, GTGGTGGGTGGGTGGGT (structured_DNA, pPT; N5,N9,N13 = 5-bromo dU [n positions 5,9,13 = modified dU]) [T30571] returned an IC50 in series [3] of 50 nM. With GTTGGGGGTTGTTGGTGGGGTGGTGG (ssDNA, PS all linkages, 3'-amine) [I100-12], the Ki in series [4] came to 5 nM. Besides, in [5], the IC50 was found to be 15 nM. For GTGGTGGGTGGGTGGGT (structured_DNA, pPT; N5,N13 = C-5 propynyl dU [n positions 5,13 = modified dU]) [T30702], the IC50 in [3] amounted to 30 nM. Consider GUGGUGGGUGGGUGGGU (ssRNA, pPT (PS at first and last linkages), RNA sugars) [T30661], for which, in [3], 84 nM corresponded to half-maximal inhibition (IC50). In series [7], GCGGGGCTCCATGGGGGTCG (structured_DNA, pPT (PS at first and last linkages)) [T30754] registered an IC50 of 120 nM. This counts as sub-micromolar. GTGGTGGGTGGGTTGGT (structured_DNA, pPT (PS at first and last linkages)) [T30678] registered an IC50 in [3] of 120 nM. This lies in the sub-micromolar range.

In [4], GATCCATGTCAGTGACAC (ssDNA, PS all linkages, 3'-amine) [1232 random GATC] returned a Ki of 560 nM. Further, the IC50 in [5] was 45 nM. In series [3], GTGGGTGGTGGGTGGGT (structured_DNA, pPT (PS at first and last linkages)) [T30696] gave an IC50 of 13 nM. On to GTGGGTGGTGGGGTGGT (structured_DNA, pPT (PS at first and last linkages)) [T30699], for which half-maximal inhibition in series [3] (IC50) was put at 50 nM. Turning to GTGGCGGGTGGGTGGGT (structured_DNA, pPT) [T30743], the IC50 in series [8] worked out at 60 nM. That is a double-digit nanomolar value.

For GTGGTTGGTGTGGTTGGT (structured_DNA, pPT (PS at first and last linkages)) [T30674], the IC50 in series [3] is 610 nM. In [3], GTGGTGGGTGGGTGGGT (structured_DNA, pPT; N5 = 5-iodo dU [n positions 5 = modified dU]) [T30576] yielded an IC50 of 50 nM. For the molecule TGGGAGGTGGGTCTG (structured_DNA, pPT (PS at first and last linkages)) [T30748], in series [9], it took 125 nM to reach half-maximal inhibition (IC50). In the case of GTGGTGGGTGGGTGGGT (structured_DNA, PS at the terminal 5' and 3' internucleoside linkages) [T30177 (AR177)], in series [10], it took 600 nM to reach half-maximal inhibition (IC50).
